According to paper PMC12583610, “Allosteric control of the bacterial ClpC/ClpP protease and its hijacking by antibacterial peptides” (The EMBO Journal, 2025):

Legend:
Mtb ClpC1 = Mtb ClpC1 (Mycobacterium tuberculosis, UniProt P9WPC9)
[1] = molecular target: Staphylococcus aureus ClpC wild-type (Staphylococcus aureus) (UniProt Q2G0P5); experiment: cross-linking
[2] = molecular target: Staphylococcus aureus ClpC wild-type (Staphylococcus aureus) (UniProt Q2G0P5); experiment: mass photometry
[3] = molecular target: Staphylococcus aureus ClpC-F436A (Staphylococcus aureus) (UniProt Q2G0P5); experiment: cross-linking
[4] = molecular target: Staphylococcus aureus ClpC-F436A (Staphylococcus aureus) (UniProt Q2G0P5); experiment: dynamic light scattering
[5] = molecular target: T1, Staphylococcus aureus ClpP (Staphylococcus aureus), Q2G036; experiment: negative stain EM; conditions: remark: other sources report otherwise
T1 chain: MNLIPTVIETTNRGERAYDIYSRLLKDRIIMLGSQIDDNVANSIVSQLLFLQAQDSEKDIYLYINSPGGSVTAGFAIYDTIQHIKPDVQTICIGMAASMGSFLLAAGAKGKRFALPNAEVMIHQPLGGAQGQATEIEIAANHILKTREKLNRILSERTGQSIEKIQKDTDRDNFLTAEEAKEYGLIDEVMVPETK

`Nc1ncnc2c1ncn2[C@@H]1O[C@H](COP(=O)(O)OP(=O)(O)OP(=O)(O)O)[C@@H](O)[C@H]1O` [ATP] was tested, and the “coupled PK/LDH NADH ATPase assay” value (Mtb ClpC1) was “ATPase activities of Mtb ClpC1-WT and indicated mutants were determined”.

In the case of “Staphylococcus aureus ClpC wild-type (from UniProt Q2G0P5) (natural protein)”, the stoichiometry N [1] is reported as 6 and the stoichiometry N [2] is reported as 2.

For “Staphylococcus aureus ClpC-F436A (from UniProt Q2G0P5) (natural protein)”, the stoichiometry N [3] was 6 and the stoichiometry N [4] was 6.

B1: Staphylococcus aureus ClpP, Q2G036 1-195 (enzyme)
chain: T1 chain
For B1, the stoichiometry N [5] was 14.
